pKd: −log10 of the molar value.
Assays:
4A8 monoclonal antibody = assay: BLI
CB6 monoclonal antibody = assay: BLI

Row | Substance | pKd (4A8 monoclonal antibody) | pKd (CB6 monoclonal antibody)
1 | S1-I53-50 NP (from UniProt P0DTC2 16-685) (complex) | 10.13 | > 12.00
2 | S1-ferritin NP (from UniProt P0DTC2 16-685) (complex) | 8.93 | > 12.00
3 | S1-mi3 NP (from UniProt P0DTC2 16-685) (complex) | > 12.00 | > 12.00

— PMC9278117
